The text below walks through data of patent publication US20240148882A1 (University of California, published 2024).

Data set [1] deals with T1, VEGF165 (human, UniProt P15692-4 27-191). Briefly: cell-based or functional assay.
Data set [2] addresses T1, VEGF165. Briefly: binding competition ELISA (VEGF165 Quantikine): free VEGF165 captured by the plate antibody. The protocol: The mvsFlt conjugates were analyzed using a VEGF₁₆₅ Quantikine Sandwich ELISA (R&D Systems) to examine the effect of HyA conjugation on sFlt inhibition of VEGF₁₆₅. The assay was carried out according to the manufacturer's instructions. Briefly, VEGF₁₆₅ was added to PBS with varying concentrations of sFlt or mysFlt. Free VEGF₁₆₅ that bound to the capture antibodies on the plate surface were detected using a horseradish peroxidase conjugated detection antibody and quantified using a spectrophotometer at 450 nm.
For orientation: ELISA stands for enzyme-linked immunosorbent assay.

Data set [3] deals with T2, VEGF165 (human, UniProt P15692 27-191).
T2 chain: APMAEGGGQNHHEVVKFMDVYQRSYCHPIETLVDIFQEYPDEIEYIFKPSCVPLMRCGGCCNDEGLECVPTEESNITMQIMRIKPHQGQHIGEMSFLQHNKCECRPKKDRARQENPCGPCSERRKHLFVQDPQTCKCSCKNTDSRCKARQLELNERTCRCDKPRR
Nature of the data set: competition ELISA (unbound VEGF); multivalent HyA conjugate.

For data set [4], the target named is T2, VEGF165. Briefly: ELISA; multivalent CMC conjugate.
Data set [5] deals with T2, VEGF165. Briefly: ELISA.
Data set [6] deals with T2, VEGF165. Briefly: competition ELISA (unbound VEGF).
Data set [7] addresses T3, mvsFlt 650 kDa LCR (multivalent sFlt-hyaluronic acid conjugate, low conjugation ratio), P17948.
T3 chain: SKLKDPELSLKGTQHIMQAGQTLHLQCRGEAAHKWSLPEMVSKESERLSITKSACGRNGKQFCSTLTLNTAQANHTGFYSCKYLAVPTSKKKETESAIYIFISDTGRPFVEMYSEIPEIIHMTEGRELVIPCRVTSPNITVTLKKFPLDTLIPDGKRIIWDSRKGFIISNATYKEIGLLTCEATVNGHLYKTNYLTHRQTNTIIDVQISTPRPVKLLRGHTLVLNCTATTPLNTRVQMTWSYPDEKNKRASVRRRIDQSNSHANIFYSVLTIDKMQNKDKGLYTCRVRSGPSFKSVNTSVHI

Data set [8] concerns the target soluble fms-like tyrosine kinase-1 (sFlt), unconjugated (UniProt P17948). Nature of the data set: cell-based or functional assay.

B1: soluble fms-like tyrosine kinase-1 (sFlt), unconjugated (receptor, UniProt P17948 27-328, looked up)
chain: T3 chain
notes: domain: first 3 Ig-like extracellular domains; Expressed in High Five insect cells, about 50 kDa; also called recombinant sFlt; soluble Flt-1 receptor; not shown: tag implied by Ni-NTA purification, not described for the tested protein (the ex)
For the molecule B1, the “IC50, HUVEC Survival” value with VEGF165 [1] was 0.0393 µg/mL. In addition, in the data set with VEGF165 [2], the IC50 (in general, the concentration at which inhibition is half-maximal) was determined as 0.0038 µg/mL.

B2: mvsFlt 1 MDa LCR (multivalent sFlt-hyaluronic acid conjugate, low conjugation ratio) (other, UniProt P17948 27-328, looked up)
chain: T3 chain
modifications: thiolated with 2-iminothiolane and linked through EMCH maleimide to 1 MDa hyaluronic acid
notes: domain: first 3 Ig-like extracellular domains; Protein-polymer conjugate; 10:1 sFlt:HyA feed ratio; final sFlt:HyA 5.2 by SEC-MALS; not shown: tag implied by Ni-NTA purification, not described
As for B2, in the data set with VEGF165 [1], the “IC50, HUVEC Survival” value amounted to 0.0449 µg/mL. In addition, the IC50 with VEGF165 [2] is 0.0022 µg/mL.

B3: mvsFlt 650 kDa HCR (multivalent sFlt-hyaluronic acid conjugate, high conjugation ratio) (other, UniProt P17948 27-328, looked up)
chain: T3 chain
modifications: thiolated with 2-iminothiolane and linked through EMCH maleimide to 650 kDa hyaluronic acid
notes: domain: first 3 Ig-like extracellular domains; Protein-polymer conjugate; 30:1 sFlt:HyA feed ratio; final sFlt:HyA 17.1 by SEC-MALS; not shown: tag implied by Ni-NTA purification, not described
With B3, the “IC50, HUVEC Survival” value with VEGF165 [1] came out at 0.0432 µg/mL. The IC50 in the data set with VEGF165 [2] stood at 0.002 µg/mL.

B4: mvsFlt 650 kDa LCR (multivalent sFlt-hyaluronic acid conjugate, low conjugation ratio) (other, UniProt P17948 27-328, looked up)
chain: T3 chain
modifications: thiolated with 2-iminothiolane and linked through EMCH maleimide to 650 kDa hyaluronic acid
notes: domain: first 3 Ig-like extracellular domains; Protein-polymer conjugate; 10:1 sFlt:HyA feed ratio; final sFlt:HyA 5.3 by SEC-MALS; also called 650 kDa LCR mvsFlt; not shown: tag implied by Ni-NTA purification, not described
For the molecule B4, the “IC50, HUVEC Survival” value with VEGF165 [1] came out at 0.0417 µg/mL. Besides, in the data set with VEGF165 [2], the IC50 turned out to be 0.0039 µg/mL.

B5: mvsFlt 1 MDa HCR (multivalent sFlt-hyaluronic acid conjugate, high conjugation ratio) (other, UniProt P17948 27-328, looked up)
chain: T3 chain
modifications: thiolated with 2-iminothiolane and linked through EMCH maleimide to 1 MDa hyaluronic acid
notes: domain: first 3 Ig-like extracellular domains; Protein-polymer conjugate; 30:1 sFlt:HyA feed ratio; final sFlt:HyA 14.1 by SEC-MALS; not shown: tag implied by Ni-NTA purification, not described
With B5, the “IC50, HUVEC Survival” value with VEGF165 [1] is 0.0454 µg/mL. Also, the IC50 in the data set with VEGF165 [2] was 0.0033 µg/mL.

B6: mvsFlt 300 kDa LCR (multivalent sFlt-hyaluronic acid conjugate, low conjugation ratio) (other, UniProt P17948 27-328, looked up)
chain: T3 chain
modifications: thiolated with 2-iminothiolane and linked through EMCH maleimide to 300 kDa hyaluronic acid
notes: domain: first 3 Ig-like extracellular domains; Protein-polymer conjugate; 10:1 sFlt:HyA feed ratio; final sFlt:HyA 7.9 by SEC-MALS; not shown: tag implied by Ni-NTA purification, not described
In the case of B6, in the data set with VEGF165 [1], the “IC50, HUVEC Survival” value stood at 0.0469 µg/mL. The molecule further displayed an IC50 in the data set with VEGF165 [2] of 0.0045 µg/mL.

B7: mvsFlt 300 kDa HCR (multivalent sFlt-hyaluronic acid conjugate, high conjugation ratio) (other, UniProt P17948 27-328, looked up)
chain: T3 chain
modifications: thiolated with 2-iminothiolane and linked through EMCH maleimide to 300 kDa hyaluronic acid
notes: domain: first 3 Ig-like extracellular domains; Protein-polymer conjugate; 30:1 sFlt:HyA feed ratio; final sFlt:HyA 15.4 by SEC-MALS; not shown: tag implied by Ni-NTA purification, not described
Turning to B7, the “IC50, HUVEC Survival” value with VEGF165 [1] was determined as 0.0444 µg/mL. Besides, in the data set with VEGF165 [2], the IC50 is 0.0047 µg/mL.

B8: conjugated multivalent VHH anti-VEGF antibody (28 VHH per 860 kDa hyaluronic acid) (other)
VHH: SNADVQLVESGGGLVQPGGSLRLSCAASGRTFSSYSMGWFRQAPGKEREFVVAISKGGYKYDAVSLEGRFTISRDNAKNTVYLQINSLRPEDTAVYYCASSRAYGSSRLRLADTYEYWGQGTLVTVSSSPSTPPTPSPSTPPGGCDDDDKHHHHHH
modifications: covalently conjugated to 860 kDa hyaluronic acid
Molecule B8 showed an IC50 in the data set with VEGF165 [3] of 812 nM.

B9: anti-VEGF VHH-CMC conjugate (~17 VHH per ~700 kDa carboxymethylcellulose) (other)
VHH: B8 VHH
modifications: covalently conjugated to ~700 kDa carboxymethylcellulose
B9 registered a half-inhibitory concentration (IC50) in the data set with VEGF165 [4] of 8800 nM.

B10: single-domain camelid (VHH) anti-VEGF antibody, unconjugated (VHH)
VHH: DVQLVESGGGLVQPGGSLRLSCAASGRTFSSYSMGWFRQAPGKEREFVVAISKGGYKYDAVSLEGRFTISRDNAKNTVYLQINSLRPEDTAVYYCASSRAYGSSRLRLADTYEYWGQGTLVTVSS
On to B10, for which the IC50 with VEGF165 [5] was determined as 761 nM; in the data set with VEGF165 [6], 758 nM.

B11: matrix metalloproteinase-7 (MMP-7) (protein)
chain: YSLFPNSPKWTSKVVTYRIVSYTRDLPHITVDRLVSKALNMWGKEIPLHFRKVVWGTADIMIGFARGAHGDSYPFDGPGNTLAHAFAPGTGLGGDAHFDEDERWTDGSSLGINFLYAATHELGHSLGMGHSSDPNAVMYPTYGNGDPQNFKLSQDDIKGIQKLYGKRSNSRKK
On to B11, for which the entries for the “protein remaining detectable after 12 h with MMP-7 at 1:1 molar ratio of MMP-7 to sFlt (SDS-PAGE, silver stain)” value in data set [7] and in data set [8] were 34.8±1.8% of mvsFlt and 6.8%, respectively. Besides, the entries for the “protein remaining detectable after 12 h with MMP-7 at 1:4 molar ratio of MMP-7 to sFlt (SDS-PAGE, silver stain)” value in data set [7] and in data set [8] were “detectable mvsFlt at 74.8±4.9%” and 34%, respectively.

B12: conjugated multivalent scFv anti-VEGF antibody (31 scFv per 860 kDa hyaluronic acid) (other)
scFv: MEIVMTQSPSTLSASVGDRVIITCQASEIIHSWLAWYQQKPGKAPKLLIYLASTLASGVPSRFSGSGSGAEFTLTISSLQPDDFATYYCQNVYLASTNGANFGQGTKLTVLGGGGGSGGGGSGGGGSGGGGSEVQLVESGGGLVQPGGSLRLSCTASGFSLTDYYYMTWVRQAPGKGLEWVGFIDPDDDPYYATWAKGRFTISRDNSKNTLYLQMNSLRAEDTAVYYCAGGDHNSGWGLDIWGQGTLVTVSSSPSTPPTPSPSTPPGGCDDDDKHHHHHH
modifications: covalently conjugated to 860 kDa hyaluronic acid
In the data set with VEGF165 [3], B12 came in with an IC50 of 47.7 nM.

B13: single-chain variable fragment (scFv) anti-VEGF antibody, unconjugated (scFv)
scFv: B12 scFv
In the data set with VEGF165 [6], B13 returned an IC50 of 89.8 nM.
